# Measured values: the Immune Epitope Database (IEDB)
# Molecular target: HLA-A*02:01
# Test: IEDB peptide-MHC binding, purified MHC/competitive/radioactivity; ≥ and ≤ were set here for values at or beyond the usual limits of such assays
# Details: source organism: Mammarenavirus choriomeningitidis
row,Sequence,IC50 [nM]
1,AVYNFATCGI,137

# Same assay, conditions: source organism: Mammarenavirus whitewaterense
row,Sequence,IC50 [nM]
1,CNYTKFWYV,725

# Same assay, conditions: source organism: SARS-CoV1
row,Sequence,IC50 [nM]
1,CLDAGINYV,0.91
2,CVMYASALV,9.3

# Same assay, conditions: source organism: Vaccinia virus WR
row,Sequence,IC50 [nM]
1,AVANCVRNL,1200
2,AVIPFDDIV,915
3,AVITETIPI,467
4,AVLSEYETMV,9.7
5,CIVAAVIIMA,1900
6,CIVQSVLRDI,1180
7,CTINVNSLA,1040
8,CTINVNSLAL,1040
9,CTMERTNDL,345
10,CVDHPFIYV,546
11,CVSNLDISSV,1480
12,DIISSKQYPA,2890
13,DINESMSQMV,158
14,DLLNVTYNI,787
15,DLNIFMTLV,1120
16,DQLVFNSISA,527
17,DQTHIKTIAV,650
18,DTCLLAISAV,46
19,DTMSIYIAVA,83
20,DVERLQMAGV,683
21,DVFRPLFDFV,1650
22,DVLPFDIKYI,183
23,DVSLSAYII,1500
24,EAAAATCALV,318
25,ELAYYNSCM,4370

# Molecular target: HLA-A*02:02
# Test: as above
# Details: source organism: Mammarenavirus choriomeningitidis
row,Sequence,IC50 [nM]
1,AVYNFATCGI,25

# Same assay, conditions: source organism: Mammarenavirus whitewaterense
row,Sequence,IC50 [nM]
1,CNYTKFWYV,1940

# Same assay, conditions: source organism: SARS-CoV1
row,Sequence,IC50 [nM]
1,CLDAGINYV,0.57
2,CVMYASALV,4.5

# Same assay, conditions: source organism: Vaccinia virus WR
row,Sequence,IC50 [nM]
1,AVANCVRNL,66
2,AVIPFDDIV,313
3,AVITETIPI,324
4,AVLSEYETMV,0.76
5,CIVAAVIIMA,1130
6,CIVQSVLRDI,218
7,CTINVNSLA,1040
8,CTINVNSLAL,494
9,CTMERTNDL,36
10,CVDHPFIYV,300
11,CVSNLDISSV,52
12,DIISSKQYPA,552
13,DINESMSQMV,312
14,DLLNVTYNI,297
15,DLNIFMTLV,1910
16,DQLVFNSISA,206
17,DQTHIKTIAV,2170
18,DTCLLAISAV,2460
19,DTMSIYIAVA,19
20,DVERLQMAGV,215
21,DVFRPLFDFV,1020
22,DVLPFDIKYI,1200
23,DVSLSAYII,691
24,EAAAATCALV,1810
25,ELAYYNSCM,129

# Molecular target: HLA-A*02:03
# Test: as above
# Details: source organism: Mammarenavirus choriomeningitidis
row,Sequence,IC50 [nM]
1,AVYNFATCGI,7.3

# Same assay, conditions: source organism: Mammarenavirus whitewaterense
row,Sequence,IC50 [nM]
1,CNYTKFWYV,794

# Same assay, conditions: source organism: SARS-CoV1
row,Sequence,IC50 [nM]
1,CLDAGINYV,6.4
2,CVMYASALV,2.9

# Same assay, conditions: source organism: Vaccinia virus WR
row,Sequence,IC50 [nM]
1,AVANCVRNL,114
2,AVIPFDDIV,241
3,AVITETIPI,43
4,AVLSEYETMV,1.5
5,CIVAAVIIMA,619
6,CIVQSVLRDI,158
7,CTINVNSLA,1610
8,CTINVNSLAL,1040
9,CTMERTNDL,25
10,CVDHPFIYV,1410
11,CVSNLDISSV,2.3
12,DIISSKQYPA,2430
13,DINESMSQMV,488
14,DLLNVTYNI,194
15,DLNIFMTLV,556
16,DQLVFNSISA,289
17,DQTHIKTIAV,390
18,DTCLLAISAV,93
19,DTMSIYIAVA,24
20,DVERLQMAGV,104
21,DVFRPLFDFV,2570
22,DVLPFDIKYI,188
23,DVSLSAYII,755
24,EAAAATCALV,248
25,ELAYYNSCM,136

# Molecular target: HLA-A*02:06
# Test: as above
# Details: source organism: Mammarenavirus choriomeningitidis
row,Sequence,IC50 [nM]
1,AVYNFATCGI,25

# Same assay, conditions: source organism: Mammarenavirus whitewaterense
row,Sequence,IC50 [nM]
1,CNYTKFWYV,35

# Same assay, conditions: source organism: SARS-CoV1
row,Sequence,IC50 [nM]
1,CLDAGINYV,1.6
2,CVMYASALV,7.4

# Same assay, conditions: source organism: Vaccinia virus WR
row,Sequence,IC50 [nM]
1,AVANCVRNL,1380
2,AVIPFDDIV,42
3,AVITETIPI,6.5
4,AVLSEYETMV,24
5,CIVAAVIIMA,733
6,CIVQSVLRDI,849
7,CTINVNSLA,248
8,CTINVNSLAL,216
9,CTMERTNDL,96
10,CVDHPFIYV,148
11,CVSNLDISSV,48
12,DIISSKQYPA,3100
13,DINESMSQMV,4150
14,DLLNVTYNI,1280
15,DLNIFMTLV,2190
16,DQLVFNSISA,759
17,DQTHIKTIAV,1000
18,DTCLLAISAV,106
19,DTMSIYIAVA,1480
20,DVERLQMAGV,776
21,DVFRPLFDFV,232
22,DVLPFDIKYI,1110
23,DVSLSAYII,4380
24,EAAAATCALV,60
25,ELAYYNSCM,3580

# Molecular target: HLA-A*68:02
# Test: as above
# Details: source organism: Mammarenavirus choriomeningitidis
row,Sequence,IC50 [nM]
1,AVYNFATCGI,13

# Same assay, conditions: source organism: Mammarenavirus whitewaterense
row,Sequence,IC50 [nM]
1,CNYTKFWYV,247

# Same assay, conditions: source organism: SARS-CoV1
row,Sequence,IC50 [nM]
1,CLDAGINYV,79
2,CVMYASALV,0.89

# Same assay, conditions: source organism: Vaccinia virus WR
row,Sequence,IC50 [nM]
1,AVANCVRNL,1350
2,AVIPFDDIV,903
3,AVITETIPI,60
4,AVLSEYETMV,1770
5,CIVAAVIIMA,1.3
6,CIVQSVLRDI,3480
7,CTINVNSLA,13
8,CTINVNSLAL,517
9,CTMERTNDL,103
10,CVDHPFIYV,5.1
11,CVSNLDISSV,1030
12,DIISSKQYPA,220
13,DINESMSQMV,2070
14,DLLNVTYNI,212
15,DLNIFMTLV,192
16,DQLVFNSISA,4130
17,DQTHIKTIAV,404
18,DTCLLAISAV,118
19,DTMSIYIAVA,17
20,DVERLQMAGV,363
21,DVFRPLFDFV,180
22,DVLPFDIKYI,361
23,DVSLSAYII,591
24,EAAAATCALV,0.21
25,ELAYYNSCM,278
